In the supplement of paper PMC10065799, “High-throughput profiling of sequence recognition by tyrosine kinases and SH2 domains using bacterial peptide display” (eLife, 2023):

Legend:
AncSZ = experiment: phosphorylation enrichment, bacterial display (enrichment ratio); higher = better substrate or ligand; peptides without Tyr show the background
EPHB1 = EPHB1 (UniProt P54762); experiment: as above
EPHB2 = EPHB2 (UniProt P29323); experiment: as above
FGFR1 = FGFR1 (UniProt P11362); experiment: as above
Sequence of FGFR1 (P11362 whole entry, looked up): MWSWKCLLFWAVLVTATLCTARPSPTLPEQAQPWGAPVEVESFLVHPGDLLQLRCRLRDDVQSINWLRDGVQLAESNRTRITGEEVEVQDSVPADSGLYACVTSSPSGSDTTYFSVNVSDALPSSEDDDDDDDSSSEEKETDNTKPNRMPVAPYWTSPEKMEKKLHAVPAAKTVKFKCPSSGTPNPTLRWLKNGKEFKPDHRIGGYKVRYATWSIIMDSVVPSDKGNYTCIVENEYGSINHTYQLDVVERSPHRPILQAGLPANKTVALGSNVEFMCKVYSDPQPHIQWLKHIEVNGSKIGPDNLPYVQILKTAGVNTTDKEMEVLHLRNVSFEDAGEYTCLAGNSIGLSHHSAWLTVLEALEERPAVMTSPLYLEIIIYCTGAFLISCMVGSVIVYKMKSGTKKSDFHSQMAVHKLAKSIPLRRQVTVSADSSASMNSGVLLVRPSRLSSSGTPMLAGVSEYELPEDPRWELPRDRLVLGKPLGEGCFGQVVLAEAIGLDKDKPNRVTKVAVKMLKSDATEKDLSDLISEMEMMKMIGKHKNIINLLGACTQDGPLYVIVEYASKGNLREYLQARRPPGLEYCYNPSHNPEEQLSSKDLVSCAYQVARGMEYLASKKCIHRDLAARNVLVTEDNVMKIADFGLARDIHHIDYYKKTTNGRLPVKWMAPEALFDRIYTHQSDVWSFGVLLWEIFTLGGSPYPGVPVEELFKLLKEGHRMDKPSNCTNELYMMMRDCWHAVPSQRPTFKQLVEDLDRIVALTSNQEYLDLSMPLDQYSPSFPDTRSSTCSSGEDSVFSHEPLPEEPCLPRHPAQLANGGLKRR

FGFR3 = FGFR3 (UniProt P22607); experiment: as above
Sequence of FGFR3 (P22607 whole entry, looked up): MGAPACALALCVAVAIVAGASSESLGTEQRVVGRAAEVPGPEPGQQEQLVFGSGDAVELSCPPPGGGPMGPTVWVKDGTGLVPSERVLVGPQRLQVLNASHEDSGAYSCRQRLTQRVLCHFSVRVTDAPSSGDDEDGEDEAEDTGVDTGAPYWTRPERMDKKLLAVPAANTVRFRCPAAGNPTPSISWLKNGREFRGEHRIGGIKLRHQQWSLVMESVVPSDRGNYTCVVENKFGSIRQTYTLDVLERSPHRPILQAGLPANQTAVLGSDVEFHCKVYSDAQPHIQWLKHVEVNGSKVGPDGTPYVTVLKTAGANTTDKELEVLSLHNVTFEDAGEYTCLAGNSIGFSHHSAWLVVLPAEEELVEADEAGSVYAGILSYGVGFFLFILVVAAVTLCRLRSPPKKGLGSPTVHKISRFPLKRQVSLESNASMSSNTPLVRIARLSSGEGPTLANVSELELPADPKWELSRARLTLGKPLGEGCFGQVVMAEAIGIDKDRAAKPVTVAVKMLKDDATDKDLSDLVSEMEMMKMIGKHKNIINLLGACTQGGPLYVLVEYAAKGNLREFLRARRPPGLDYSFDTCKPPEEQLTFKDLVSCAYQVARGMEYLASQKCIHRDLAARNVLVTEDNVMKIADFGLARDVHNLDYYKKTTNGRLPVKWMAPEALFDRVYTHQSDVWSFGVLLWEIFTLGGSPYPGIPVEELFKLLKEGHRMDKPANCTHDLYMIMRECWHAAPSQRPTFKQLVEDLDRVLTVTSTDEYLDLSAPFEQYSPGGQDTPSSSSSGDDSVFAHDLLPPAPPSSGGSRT

Fer (mouse) = experiment: as above
Fes = Fes (UniProt P07332); experiment: as above
Fyn = Fyn (UniProt P06241); experiment: as above
Hck = Hck (UniProt P08631); experiment: as above
Jak2 = Jak2 (UniProt O60674); experiment: as above
Sequence of Jak2 (O60674 whole entry, looked up): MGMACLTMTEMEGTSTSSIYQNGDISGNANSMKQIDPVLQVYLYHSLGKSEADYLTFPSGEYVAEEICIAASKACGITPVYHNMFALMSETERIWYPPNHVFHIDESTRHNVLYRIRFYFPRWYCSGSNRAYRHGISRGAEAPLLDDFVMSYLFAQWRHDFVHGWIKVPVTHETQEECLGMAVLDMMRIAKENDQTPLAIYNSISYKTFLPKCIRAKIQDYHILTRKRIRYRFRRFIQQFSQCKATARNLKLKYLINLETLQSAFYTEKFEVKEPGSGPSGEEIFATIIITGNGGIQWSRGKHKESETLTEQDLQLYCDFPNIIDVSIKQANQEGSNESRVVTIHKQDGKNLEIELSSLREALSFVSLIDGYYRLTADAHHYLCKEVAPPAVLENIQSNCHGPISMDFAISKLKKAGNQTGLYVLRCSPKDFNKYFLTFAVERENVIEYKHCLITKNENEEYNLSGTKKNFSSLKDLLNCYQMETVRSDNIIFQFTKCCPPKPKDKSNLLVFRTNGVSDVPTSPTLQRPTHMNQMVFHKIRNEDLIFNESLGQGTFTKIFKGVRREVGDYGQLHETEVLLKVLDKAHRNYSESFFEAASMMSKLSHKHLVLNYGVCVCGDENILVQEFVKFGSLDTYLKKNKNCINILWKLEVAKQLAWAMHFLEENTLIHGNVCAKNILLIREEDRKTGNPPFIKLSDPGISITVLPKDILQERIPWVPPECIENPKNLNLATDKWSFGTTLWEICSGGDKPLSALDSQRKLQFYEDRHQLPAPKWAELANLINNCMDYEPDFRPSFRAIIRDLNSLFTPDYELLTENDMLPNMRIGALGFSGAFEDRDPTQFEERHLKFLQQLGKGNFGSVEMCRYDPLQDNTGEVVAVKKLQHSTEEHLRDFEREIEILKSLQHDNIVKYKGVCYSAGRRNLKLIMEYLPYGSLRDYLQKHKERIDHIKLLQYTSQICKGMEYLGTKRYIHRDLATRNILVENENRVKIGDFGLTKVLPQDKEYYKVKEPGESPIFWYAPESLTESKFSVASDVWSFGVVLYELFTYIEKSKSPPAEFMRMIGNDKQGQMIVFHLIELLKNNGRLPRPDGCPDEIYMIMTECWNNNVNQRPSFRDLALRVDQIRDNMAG

MERTK = MERTK (UniProt Q12866); experiment: as above
c-Abl (mouse) = experiment: as above
c-Src = experiment: as above
Grb2 SH2 = Grb2 SH2 (UniProt P62993); experiment: SH2 binding enrichment of the phosphorylated peptide, bacterial display (enrichment ratio); higher = better substrate or ligand; peptides without Tyr show the background
Sequence of Grb2 SH2 (P62993 whole entry, looked up): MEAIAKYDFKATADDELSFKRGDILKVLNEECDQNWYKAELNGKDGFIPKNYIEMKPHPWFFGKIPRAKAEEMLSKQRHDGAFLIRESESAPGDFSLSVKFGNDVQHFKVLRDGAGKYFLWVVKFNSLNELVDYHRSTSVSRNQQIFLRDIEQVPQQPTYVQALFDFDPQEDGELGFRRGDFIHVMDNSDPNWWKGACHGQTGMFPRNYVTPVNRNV

SHP2-C SH2 = experiment: as above
c-Src SH2 = experiment: as above
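Wherever SH2 binding enrichment of the phosphorylated peptide, bacterial display is given: peptide library displayed on the E. coli surface as eCPX fusions, selected cells deep-sequenced, score is each peptide's frequency after selection divided by its frequency in the input.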
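Wherever phosphorylation enrichment, bacterial display is given: 11-residue human phosphosite peptides and single-mutation variants displayed on the E. coli surface, counted by deep sequencing, each peptide's frequency after selection divided by its frequency in the unselected input library; frequency after pTyr selection over input frequency; kinase dosed for 20-30% of maximal phosphorylation in three min.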

Sequence of EPHB1 (P54762 whole entry, looked up): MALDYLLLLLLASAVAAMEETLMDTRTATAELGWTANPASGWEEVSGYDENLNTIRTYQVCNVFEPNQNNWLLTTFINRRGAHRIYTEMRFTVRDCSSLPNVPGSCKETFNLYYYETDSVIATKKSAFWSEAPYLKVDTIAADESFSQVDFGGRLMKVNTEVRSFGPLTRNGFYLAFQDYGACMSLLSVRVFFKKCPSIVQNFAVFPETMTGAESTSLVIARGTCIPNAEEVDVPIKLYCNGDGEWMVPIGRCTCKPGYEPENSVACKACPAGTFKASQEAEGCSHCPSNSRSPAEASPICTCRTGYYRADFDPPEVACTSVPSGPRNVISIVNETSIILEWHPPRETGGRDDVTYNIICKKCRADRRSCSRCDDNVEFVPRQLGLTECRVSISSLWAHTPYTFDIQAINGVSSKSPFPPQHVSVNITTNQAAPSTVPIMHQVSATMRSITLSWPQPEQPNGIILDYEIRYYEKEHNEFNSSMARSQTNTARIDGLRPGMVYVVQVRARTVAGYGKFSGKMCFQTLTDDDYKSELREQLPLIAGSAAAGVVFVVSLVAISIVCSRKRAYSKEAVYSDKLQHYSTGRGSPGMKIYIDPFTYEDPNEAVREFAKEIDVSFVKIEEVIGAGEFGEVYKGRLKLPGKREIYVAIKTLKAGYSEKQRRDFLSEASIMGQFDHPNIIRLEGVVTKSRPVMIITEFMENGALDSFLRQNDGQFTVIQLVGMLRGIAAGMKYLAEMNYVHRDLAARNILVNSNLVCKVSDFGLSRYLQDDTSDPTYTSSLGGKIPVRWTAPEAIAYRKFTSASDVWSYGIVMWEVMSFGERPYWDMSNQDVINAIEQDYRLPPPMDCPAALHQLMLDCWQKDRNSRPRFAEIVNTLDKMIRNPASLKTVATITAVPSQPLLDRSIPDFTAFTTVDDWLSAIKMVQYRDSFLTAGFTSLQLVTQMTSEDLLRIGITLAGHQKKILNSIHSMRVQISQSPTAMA
Sequence of EPHB2 (P29323 whole entry, looked up): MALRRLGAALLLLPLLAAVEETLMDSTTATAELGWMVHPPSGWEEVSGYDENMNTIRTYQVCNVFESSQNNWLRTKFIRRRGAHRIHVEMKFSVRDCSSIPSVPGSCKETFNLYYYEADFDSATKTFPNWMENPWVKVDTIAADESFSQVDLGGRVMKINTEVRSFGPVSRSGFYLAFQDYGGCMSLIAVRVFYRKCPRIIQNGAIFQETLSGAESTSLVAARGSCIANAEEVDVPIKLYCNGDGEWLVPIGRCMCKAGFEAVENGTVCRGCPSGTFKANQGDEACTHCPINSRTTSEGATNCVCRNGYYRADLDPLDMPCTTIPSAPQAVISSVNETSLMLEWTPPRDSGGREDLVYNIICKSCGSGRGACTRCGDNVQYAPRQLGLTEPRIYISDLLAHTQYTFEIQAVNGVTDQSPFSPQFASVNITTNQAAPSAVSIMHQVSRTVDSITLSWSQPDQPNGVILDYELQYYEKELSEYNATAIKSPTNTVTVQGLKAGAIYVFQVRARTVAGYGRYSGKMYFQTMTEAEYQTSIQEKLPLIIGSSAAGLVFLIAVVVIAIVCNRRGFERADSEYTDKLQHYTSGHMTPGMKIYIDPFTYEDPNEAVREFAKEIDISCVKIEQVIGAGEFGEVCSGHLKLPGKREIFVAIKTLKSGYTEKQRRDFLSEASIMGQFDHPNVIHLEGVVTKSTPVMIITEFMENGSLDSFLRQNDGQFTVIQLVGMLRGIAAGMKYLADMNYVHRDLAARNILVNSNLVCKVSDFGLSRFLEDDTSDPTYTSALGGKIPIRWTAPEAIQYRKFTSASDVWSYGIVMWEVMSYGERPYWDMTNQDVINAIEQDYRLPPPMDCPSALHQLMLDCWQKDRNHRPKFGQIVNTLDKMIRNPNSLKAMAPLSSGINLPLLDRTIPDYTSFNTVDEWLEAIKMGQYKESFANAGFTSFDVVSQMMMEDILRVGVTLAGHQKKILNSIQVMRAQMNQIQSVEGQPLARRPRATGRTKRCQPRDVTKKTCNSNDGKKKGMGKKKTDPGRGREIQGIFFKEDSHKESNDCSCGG

| Sequence | phosphorylation enrichment (AncSZ) | phosphorylation enrichment (EPHB1) | phosphorylation enrichment (EPHB2) | phosphorylation enrichment (FGFR1) | phosphorylation enrichment (FGFR3) | phosphorylation enrichment (Fer (mouse)) | phosphorylation enrichment (Fes) | phosphorylation enrichment (Fyn) | phosphorylation enrichment (Hck) | phosphorylation enrichment (Jak2) | phosphorylation enrichment (MERTK) | phosphorylation enrichment (c-Abl (mouse)) | phosphorylation enrichment (c-Src) | SH2 binding enrichment (Grb2 SH2) | SH2 binding enrichment (SHP2-C SH2) | SH2 binding enrichment (c-Src SH2) |
| --- | --- | --- | --- | --- | --- | --- | --- | --- | --- | --- | --- | --- | --- | --- | --- | --- |
| PLRAYYLIARV [HLCS_Y635_D634Y] | 1.17 | 0.543 | 0.726 | 1.2 | 1.31 | 0.732 | 1.12 | 0.571 | 0.415 | 1.71 | 0.636 | 0.865 | 0.362 | 1.67 | 1.69 | 1.62 |
| PPPPAYDDMAQ [TNK2_Y635_V638M] | 1.25 | 0.441 | 0.632 | 0.492 | 0.762 | 0.551 | 1.04 | 0.544 | 0.647 | 1.14 | 0.675 | 0.597 | 0.526 | 0.699 | 0.543 | 1.37 |
| PQGVGYPPQPQ [EP300_Y2219_Q2223P] | 0.972 | 0.503 | 0.53 | 0.695 | 0.569 | 0.815 | 0.904 | 0.564 | 0.571 | 0.926 | 0.74 | 0.931 | 0.802 | 0.998 | 0.716 | 0.666 |
| PRPAGYPSTVS [CACNA1C_Y1832] | 0.458 | 0.327 | 0.413 | 0.333 | 0.446 | 0.331 | 0.493 | 0.43 | 0.251 | 0.55 | 0.363 | 0.653 | 0.735 | 1 | 0.621 | 0.484 |
| PRSRSYFSTSI [REPS2_Y462_S463F] | 0.623 | 0.478 | 0.797 | 0.457 | 0.574 | 0.436 | 0.791 | 0.468 | 0.691 | 0.635 | 0.496 | 0.452 | 0.677 | 1.08 | 0.906 | 0.769 |
| PSAEGYQDVRD [ABLIM1_Y439] | 1.15 | 0.656 | 0.649 | 0.571 | 0.699 | 0.634 | 1.08 | 0.689 | 0.545 | 0.873 | 0.348 | 0.688 | 0.492 | 0.812 | 0.621 | 3.8 |
| PSDPSYEDTRE [BMPR1A_Y467_M470T] | 1.66 | 0.765 | 0.883 | 0.813 | 1.18 | 0.894 | 2.73 | 0.887 | 1.19 | 2.37 | 0.827 | 1.71 | 1.14 | 1.77 | 1.52 | 1.73 |
| PSQRRYVYYYS [PTEN_Y174] | 0.958 | 0.57 | 0.459 | 2.08 | 0.785 | 0.503 | 1.08 | 0.648 | 0.497 | 1.13 | 2.42 | 1.21 | 0.872 | 1.55 | 4.7 | 2.25 |
| PTTKTYFPHFD [HBA1_Y43] | 0.66 | 0.374 | 0.396 | 0.595 | 0.625 | 0.479 | 0.929 | 0.545 | 0.352 | 0.572 | 0.553 | 0.59 | 0.576 | 0.825 | 0.951 | 0.396 |
| PVGDVYKKKGL [NMNAT1_Y55_A54V] | 0.534 | 0.451 | 0.567 | 0.498 | 0.915 | 0.487 | 0.557 | 0.465 | 0.646 | 0.405 | 0.491 | 0.417 | 0.488 | 0.837 | 0.748 | 0.55 |
| PVGVLYEVKVF [PTS_Y128_K129E_YF] | 2.17 | 1.5 | 0.91 | 1.02 | 1.41 | 2.05 | 2.67 | 0.849 | 0.986 | 2.08 | 1.16 | 1.29 | 0.89 | 0.992 | 0.836 | 0.611 |
| PVKAAYQKVVA [HBB_Y131_Q128K] | 0.714 | 1.14 | 0.491 | 0.539 | 0.766 | 0.588 | 0.823 | 0.648 | 0.539 | 0.95 | 0.523 | 2.43 | 0.753 | 0.968 | 0.879 | 0.615 |
| PYAEPYADYGG [APBA1_Y187_S184A] | 2.86 | 1.16 | 1.4 | 2.13 | 1.76 | 0.861 | 3.07 | 1.33 | 1.19 | 2.47 | 0.853 | 1.82 | 5.47 | 0.836 | 0.695 | 7.71 |
| QAIDEYEKWLE [MAP9_Y603_N601D] | 1.5 | 1.06 | 0.716 | 0.515 | 1.34 | 0.581 | 1.41 | 0.66 | 0.607 | 1.46 | 0.996 | 0.85 | 0.479 | 0.757 | 0.805 | 0.432 |
| QDGYSYLSRQM [LDLR_Y847_P848L] | 0.71 | 0.517 | 0.467 | 0.995 | 0.664 | 0.562 | 0.94 | 0.305 | 0.646 | 0.784 | 1.26 | 0.541 | 0.464 | 0.747 | 2.11 | 8.2 |
| QDRTFYESVRT [SPEN_Y633_YF] | 1.1 | 0.74 | 0.579 | 0.529 | 0.686 | 8.88 | 1.04 | 1.21 | 2.43 | 0.564 | 1.04 | 0.717 | 1.29 | 0.816 | 2.39 | 1.97 |
| QEIATYRRLQE [KRT14_Y415_L419Q] | 0.926 | 0.568 | 0.721 | 0.699 | 0.512 | 0.506 | 0.803 | 0.578 | 0.482 | 1.51 | 0.7 | 1.1 | 0.717 | 0.702 | 1.21 | 0.475 |
